From patent publication US20210269476A1 come the findings set out here.

By Kd is commonly meant the equilibrium constant for the complex coming apart. High values mean weaker binding, low ones tighter binding. As a reminder, the koff is a measure of how fast the partners let go of each other. A lower koff goes with a long-lived complex. For orientation: kon means a measure of how fast the partners come together. A low value points to slower complex formation.

Assay [1] concerns the target human IgG1 (coupled to the sensor chip) (human). As to the kind of experiment: SPR, Biacore X-100, single cycle kinetics, human IgG1 coupled to the chip, scFv as analyte. A general note: In SPR one partner is held on a chip, and binding of the other changes the refractive index at the surface.
Assay [2] addresses human serum-derived IgG polyclonal antibody (WAKO) (human). As to the kind of experiment: affinity column breakthrough curve; scFv immobilized on HiTrap NHS-activated HP 1 mL, polyclonal human IgG 1 mg/mL at 1 mL/min.
The target is the same in assay [3]. In words: affinity column breakthrough curve; scFv (5.0 mg) immobilized on HiTrap NHS-activated HP 1 mL, polyclonal human IgG 1 mg/mL at 1 mL/min.

B1: R3-26 repCK+K (scFv)
scFv: QEQLVESGGGLVTPGGTLTLTCTVSGIDLSSYAMSWVRQVPGEGLEWIGIIGSGGGTAYANWARGRFTISRTSSTTVDLRMTSLTTEDTATYFCATDYGIYGYAYGHLWGPGTLVTVTSGGGGSGGGGSGGGGSELVMTQTASPVSAAVGGTVTINCQASQSISTALAWYQQRPGQPPRLLIYDASTLASGVSSRFSGSGSGTEFTLTISDLESADAATYYCQTYFGSDTDNAFGEGTEVEITGSAAAGGGGSKIE
In assay [1], B1 had a Kd of 1.6 nM, a koff of 9.1e-05 s⁻¹ and a kon of 56000 M⁻¹ s⁻¹. For the same molecule, the [10% DBC (mg/mL) at flow rate of 1.0 mL/min]/[amount of protein immobilized on column (mg)] in assay [2] is 0.63 (mg/mL)/mg.

B2: R3-26 repCK+K3 (scFv)
scFv: QEQLVESGGGLVTPGGTLTLTCTVSGIDLSSYAMSWVRQVPGEGLEWIGIIGSGGGTAYANWARGRFTISRTSSTTVDLRMTSLTTEDTATYFCATDYGIYGYAYGHLWGPGTLVTVTSGGGGSGGGGSGGGGSELVMTQTASPVSAAVGGTVTINCQASQSISTALAWYQQRPGQPPRLLIYDASTLASGVSSRFSGSGSGTEFTLTISDLESADAATYYCQTYFGSDTDNAFGEGTEVEITGSAAAGGGGSKKKIE
Regarding B2, in assay [1], the Kd was 1.7 nM, the koff is 0.0001 s⁻¹ and the kon was determined as 61000 M⁻¹ s⁻¹. In addition, in assay [3], the [10% DBC (mg/mL) at flow rate of 1.0 mL/min]/[amount of protein immobilized on column (mg)] was 1.26 (mg/mL)/mg.

B3: R3-26 repCK+K5 (scFv)
scFv: QEQLVESGGGLVTPGGTLTLTCTVSGIDLSSYAMSWVRQVPGEGLEWIGIIGSGGGTAYANWARGRFTISRTSSTTVDLRMTSLTTEDTATYFCATDYGIYGYAYGHLWGPGTLVTVTSGGGGSGGGGSGGGGSELVMTQTASPVSAAVGGTVTINCQASQSISTALAWYQQRPGQPPRLLIYDASTLASGVSSRFSGSGSGTEFTLTISDLESADAATYYCQTYFGSDTDNAFGEGTEVEITGSAAAGGGGSKKKKKIE
In assay [1], B3 returned a Kd of 2.4 nM, a koff of 0.00017 s⁻¹ and an on-rate constant (kon) of 70000 M⁻¹ s⁻¹. For the same molecule, the [10% DBC (mg/mL) at flow rate of 1.0 mL/min]/[amount of protein immobilized on column (mg)] in assay [3] was 1.4 (mg/mL)/mg.
